Test results published in US20170342161A1 (APROGEN KIC, published 2017).
Blank lines part the entries; values can stand above or below the binder they belong to.

Tests used:
[1] = target: T1, carbonic anhydrase 12 (CA-XII) as expressed by human tumor cell lines (human, UniProt O43570 25-354); assay: flow cytometry, percent positive cells, HCT116 (colon)
T1 construct: also called CA12; CA12 antigen
Experimental: (§1) 27B6 and 4B4 monoclonal antibodies were analyzed for binding to various cell lines obtained from KCLB (Korean Cell Line Bank) and SNU (Seoul National University) using flow cytometry. Briefly, various cell lines were obtained from KCLB (Korean Cell Line Bank) and SNU (Seoul National University). At 37° C. under a 5% CO₂ atmosphere, L-132, SW-900, DU145, LNCap, MCF-7, Huh7, and Hs-578T were cultured in Dulbecco's MEM (GIBCO, Invitrogen) supplemented with 10% heat-inactivated fetal bovine serum (FBS; GIBCO, Invitrogen) and A549, NCI-H460, NCI-H417, DLD-1, HCT116, HT-29, SW-480, SW-620, LS174T, PC-3, SNU1, SNU638, SNU719, MKN1, MKN28, MKN45, MKN74, NCI-N87, SK-BR3, MDA-MB231, and MDA-MB453 were cultured in RPMI 1640 (GIBCO, Invitrogen) supplemented with 10% heat-inactivated FBS. […]
(§2) The cultured cancer cell lines were incubated with the 27B6 or the 4B4 monoclonal antibody of the present disclosure at 4° C. for 30 min, washed with PBS, and treated with FITC-conjugated goat anti-mouse IgG (DiNona Inc, Korea) at 4° C. for 15 min. […] Also, titers of the 27B6 and the 4B4 antibody were measured in various solid tumor cell lines.

[2] = target: T1, carbonic anhydrase 12 (CA-XII) as …; assay: flow cytometry (A549 cells, per paragraph 117)
Experimental: (§3) Three days post transfection, the supernatant was taken and added to A549 cells which were then incubated at 4° C. for 30 min. Unbound antibodies were removed by centrifugation, together with 3 ml of PBS, at 1500 rpm for 3 min. The bound antibodies were detected by incubation with a 150-fold dilution of the secondary antibody goat anti-Mouse Ig-FITC (Dinona) at 4° C. for 15 min, followed by washing with 3 ml of PBS in the same manner. Thereafter, the antibody titer to A549 cells was measured using flow cytometry. Subsequently, a stable cell line was established. For this, the medium was exchanged with a PowerCHO medium (LONZA, Switzerland) supplemented with 30 nM MTX (Sigma, USA) and 200 μg/ml G418 (Invitrogen, USA), after which clone selection was started. Concentrations of MTX and G418 in the selection medium were increased with the repetition of clone selection rounds. Each round was set to be three weeks. The final round of clone selection was performed in a PowerCHO medium supplemented with 1000 nM MTX and 400 μg/ml G418. Thereafter, the final cell line was established as a single colony through limiting dilution.

[3] = target: T1, carbonic anhydrase 12 (CA-XII) as …; assay: flow cytometry, percent positive cells, NCI-H460 (lung)
Experimental: as §1, §2

[4] = target: T1, carbonic anhydrase 12 (CA-XII) as …; assay: flow cytometry (A549 cells, per paragraph 138)
Experimental: as §3, with “to A549 cells, which were” for “to A549 cells which were”, “was measured by flow cytometry.” for “was measured using flow cytometry.”, “1000 nM of MTX and” for “1000 nM MTX and”, “400 μg/ml of G418. Thereafter,” for “400 μg/ml G418. Thereafter,”

T1 sequence (O43570 25-354 limits assumed): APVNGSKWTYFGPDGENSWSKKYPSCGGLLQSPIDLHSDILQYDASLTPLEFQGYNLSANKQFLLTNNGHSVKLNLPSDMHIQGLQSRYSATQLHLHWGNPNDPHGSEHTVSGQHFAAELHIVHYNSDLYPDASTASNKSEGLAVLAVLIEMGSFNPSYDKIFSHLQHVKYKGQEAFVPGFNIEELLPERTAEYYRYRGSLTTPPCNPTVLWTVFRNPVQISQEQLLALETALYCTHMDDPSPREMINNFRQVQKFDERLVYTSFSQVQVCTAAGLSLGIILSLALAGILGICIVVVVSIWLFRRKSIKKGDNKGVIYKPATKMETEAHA

binding result [1]: binds
B1: 27B6 monoclonal antibody (antibody, mouse IgG1, V domains shown)
VH: QVQLQQSGPQLVWPGASVKISCNTSGYSFTNYWIHWVKQRPGQGLEWIGMIDPSDSETRLNQKFKDKTTLTVDRSSSTAYMQVSSSTSEDSAVYYCTRGIRGGYYAMDYWGQGTSVTVSS
VL: DIQMTQTTSSLSASLGDRVTISCRASQDISNYLNWYQQKPEGTVKLLIYYTSRLHSGVPSRFSGSGSGTDYSLTISNLEQEDIATYFCQQGDTLPRTFGEGTKLEIR
notes: also called 27B6 Ab; mouse 27B6 antibody

binding result [2]: binds
B2: 27B6 chimeric antibody (antibody, V domains shown)
VH: B1 VH
VL: B1 VL
notes: Chimeric antibody: mouse 27B6 variable regions, the rest 'substituted with the Fc of the human antibody'; Produced in CHO DG44 cells; also called chimeric 27B6; 27B6-HuIgFc

binding result [3]: binds
B3: 4B4 monoclonal antibody (antibody, V domains shown)
VH: EIQLQQSGPELVKPGASVKISCKASGYSYTDYNIYWVRQSQGKSLDWIGYIDPANGDTTYNQKFKGKATLTVDKSSSTAFMHLNSLTSDGSAVYFCARPIYYGVYWYFDVWGAGTTVTVS
VL: DIVMTQAAPSVPVTPGESVSISCRSSKSLLHSNGNTYLYWFLQRPGQSPQLLIYRMSNLASGVPDRFSGSGSGTAFTLRISRVEAEDVGVYYCMQHLEYPFTFGSGTKLEIK
notes: Mouse hybridoma antibody; also called 4B4 Ab; mouse 4B4 antibody

binding result [4]: binds
B4: 4B4 chimeric antibody (antibody, V domains shown)
VH: B3 VH
VL: B3 VL
notes: Chimeric antibody: mouse 4B4 variable regions, the rest 'substituted with the Fc of the human antibody'; Produced in CHO DG44 cells; also called chimeric 4B4; 4B4-HuIgFc
